Legend:
Conditions in all cases: partners not purified
mKO-PBP2^S330C [1] = target: T1, mKO-PBP2^S330C (E. coli, UniProt P0AD65 1-633, S330C); assay: FRET or BRET; as the two-plasmid FRET, cells treated with mecillinam (2 mg/L) for two mass doublings
T1 construct: made from pWA004 by mutagenesis PCR; source: E. coli LMC500, expressed from plasmid (15 uM IPTG), in fixed cells; not shown: mKO, N-terminal, kept
T1 sequence (looked up): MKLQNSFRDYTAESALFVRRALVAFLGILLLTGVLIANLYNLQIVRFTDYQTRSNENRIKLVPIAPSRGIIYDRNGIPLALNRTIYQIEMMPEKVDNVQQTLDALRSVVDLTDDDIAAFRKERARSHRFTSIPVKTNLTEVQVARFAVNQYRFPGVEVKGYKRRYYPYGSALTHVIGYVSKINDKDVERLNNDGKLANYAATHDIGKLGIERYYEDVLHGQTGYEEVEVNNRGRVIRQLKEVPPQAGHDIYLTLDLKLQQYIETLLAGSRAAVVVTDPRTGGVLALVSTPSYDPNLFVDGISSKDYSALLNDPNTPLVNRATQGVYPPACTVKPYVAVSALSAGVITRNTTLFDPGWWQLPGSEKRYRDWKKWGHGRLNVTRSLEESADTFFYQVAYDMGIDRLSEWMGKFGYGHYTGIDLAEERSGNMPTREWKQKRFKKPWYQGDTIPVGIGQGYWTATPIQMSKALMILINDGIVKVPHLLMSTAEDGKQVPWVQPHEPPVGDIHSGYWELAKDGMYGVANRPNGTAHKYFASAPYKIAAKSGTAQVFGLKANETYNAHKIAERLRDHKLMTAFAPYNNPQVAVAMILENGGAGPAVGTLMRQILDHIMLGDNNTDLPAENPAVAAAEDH

mKO-PBP2^L61R = target: T2, mKO-PBP2^L61R (E. coli, UniProt P0AD65 1-633, L61R); assay: as above
T2 construct: PBP2 of E. coli with L61R (hyperactive variant); made from pWA004 by mutagenesis PCR; also called hyperactive PBP2^L61R; source: E. coli LMC500, expressed from plasmid (15 uM IPTG), in fixed cells; not shown: mKO, N-terminal, kept
T2 sequence (looked up): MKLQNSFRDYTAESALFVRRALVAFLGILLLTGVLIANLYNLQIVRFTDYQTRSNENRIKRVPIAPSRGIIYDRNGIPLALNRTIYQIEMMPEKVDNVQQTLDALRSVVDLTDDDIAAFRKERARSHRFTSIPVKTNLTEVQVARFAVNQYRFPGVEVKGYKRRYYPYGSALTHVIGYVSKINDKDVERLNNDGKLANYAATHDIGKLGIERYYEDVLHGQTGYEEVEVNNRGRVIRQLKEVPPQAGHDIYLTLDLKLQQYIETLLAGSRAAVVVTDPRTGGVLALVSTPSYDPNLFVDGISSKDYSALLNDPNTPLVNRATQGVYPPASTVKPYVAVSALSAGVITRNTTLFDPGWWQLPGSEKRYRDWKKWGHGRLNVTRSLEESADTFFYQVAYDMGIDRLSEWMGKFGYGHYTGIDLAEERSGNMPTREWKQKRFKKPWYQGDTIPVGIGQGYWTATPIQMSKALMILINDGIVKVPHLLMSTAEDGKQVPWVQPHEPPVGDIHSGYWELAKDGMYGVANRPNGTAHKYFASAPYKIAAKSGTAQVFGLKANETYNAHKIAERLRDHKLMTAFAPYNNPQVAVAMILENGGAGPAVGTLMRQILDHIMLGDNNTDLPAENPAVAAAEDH

mKO-^MalF37PBP2 = target: T3, mKO-^MalF37PBP2 (E. coli, UniProt P02916 1-37; P0AD65 46-633); assay: as above
T3 construct: MalF of E. coli, the first 37 residues (cytoplasmic N-terminus and transmembrane helix), amplified from the MG1655 genome; PBP2 of E. coli excluding the first 45 residues (NT and TMH removed, periplasmic domain kept); also called PBP2 with the NT and TMH of MalF; source: E. coli LMC500, expressed from plasmid (15 uM IPTG), in fixed cells; not shown: mKO, N-terminal, kept
T3 chain (looked up): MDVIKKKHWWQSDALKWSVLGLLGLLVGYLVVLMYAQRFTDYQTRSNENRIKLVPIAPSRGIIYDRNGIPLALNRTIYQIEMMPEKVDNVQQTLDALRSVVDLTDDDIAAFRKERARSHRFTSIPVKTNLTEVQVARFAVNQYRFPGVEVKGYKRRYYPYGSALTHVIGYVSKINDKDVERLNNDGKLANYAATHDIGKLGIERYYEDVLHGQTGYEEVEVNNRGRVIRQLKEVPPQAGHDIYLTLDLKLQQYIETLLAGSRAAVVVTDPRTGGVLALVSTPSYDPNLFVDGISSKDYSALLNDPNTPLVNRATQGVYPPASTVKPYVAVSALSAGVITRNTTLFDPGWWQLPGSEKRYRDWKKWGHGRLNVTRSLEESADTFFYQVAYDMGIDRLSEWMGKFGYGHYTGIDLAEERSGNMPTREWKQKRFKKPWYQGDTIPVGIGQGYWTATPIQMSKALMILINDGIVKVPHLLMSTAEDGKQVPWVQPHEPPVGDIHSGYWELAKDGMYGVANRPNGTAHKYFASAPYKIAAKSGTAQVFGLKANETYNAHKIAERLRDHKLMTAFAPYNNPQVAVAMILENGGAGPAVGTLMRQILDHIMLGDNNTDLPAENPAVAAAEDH

mKO-PBP2^S330C [2] = target: T1, mKO-PBP2^S330C; assay: FRET or BRET; two-plasmid spectral FRET in E. coli LMC500 cells; mCherry fusion as acceptor, mKO fusion as donor; Gb4 medium, steady state at 28 C, 15 uM IPTG for two mass doublings, FAGA-fixed; acceptor FRET efficiency (EfA) by spectral unmixing

EfA (acceptor FRET efficiency) (mKO-PBP2^S330C [1]): 6.6% | EfA (acceptor FRET efficiency) (mKO-PBP2^L61R): 6.3% | EfA (acceptor FRET efficiency) (mKO-^MalF37PBP2): 3% | EfA (acceptor FRET efficiency) (mKO-PBP2^S330C [2]): 10.2%
B1: RodA (wild type), fused to mCherry or to mKO (enzyme, E. coli, UniProt P0ABG7 1-370, looked up)
chain: MTDNPNKKTFWDKVHLDPTMLLILLALLVYSALVIWSASGQDIGMMERKIGQIAMGLVIMVVMAQIPPRVYEGWAPYLYIICIILLVAVDAFGAISKGAQRWLDLGIVRFQPSEIAKIAVPLMVARFINRDVCPPSLKNTGIALVLIFMPTLLVAAQPDLGTSILVALSGLFVLFLSGLSWRLIGVAVVLVAAFIPILWFFLMHDYQRQRVMMLLDPESDPLGAGYHIIQSKIAIGSGGLRGKGWLHGTQSQLEFLPERHTDFIFAVLAEELGLVGILILLALYILLIMRGLWIAARAQTTFGRVMAGGLMLILFVYVFVNIGMVSGILPVVGVPLPLVSYGGSALIVLMAGFGIVMSIHTHRKMLSKSV
notes: RodA, peptidoglycan glycosyltransferase of the E. coli elongasome; wild-type rodA gene; mCh-RodA in all others; also called mCh-RodA; mKO-RodA; source: E. coli LMC500, expressed from plasmid (15 uM IPTG), in fixed cells; not shown: mCherry (acceptor construct, pSAV047-RodA) or mKO (donor construct, pXL56), N-terminal, kept

Source: article PMC7793260, “MreC and MreD balance the interaction between the elongasome proteins PBP2 and RodA” (PLoS Genetics, 2020)
